These results are taken from patent publication US20100285988A1.

Assay [1] addresses γ-secretase (human; HeLa cell membrane / solubilized HeLa membrane; endogenous in HEK293 cells) (human) (UniProt P49768). The experiment in a line: cell-based or functional assay.
The target in assay [2] is γ-secretase (mouse; mouse brain membrane, N2A neuroblastoma cells) (mouse). The experiment in a line: cell-based or functional assay.

A value given as a limit tells only on which side of the number the result lay.

On to “recombinant βCTF with the Flemish mutation (A21G) (from UniProt P05067 672-770)”, for which the reaction rate of γ-secretase (Aβ40 production in vitro) relative to WT βCTF in assay [1] was 3 fold.
“αCTF-FLAG (recombinant α-secretase cleaved APP C-terminal fragment) (from UniProt P05067 688-770)”: in assay [1], the inhibition of X40 production, αCTF at 0.25 µM is 24%; the inhibition of X40 production, αCTF at 0.5 µM was determined as 32%; the inhibition of X40 production, αCTF at 1.0 µM turned out to be 60%; the suppression of γ-secretase activity for Aβ production from 1 µM βCTF, αCTF at 0.25 µM is 66%. In assay [1], this substance gave a suppression of γ-secretase activity for Aβ production from 1 µM βCTF, αCTF at 0.5 µM of 71% and a suppression of γ-secretase activity for Aβ production from 1 µM βCTF, αCTF at 1.0 µM of 82%.
In assay [2], βCTFΔ (Aβ17-23 deleted form of βCTF) returned a reaction rate of γ-secretase, 40-site production, relative to βCTF (mouse brain membrane) of 25 fold and a reaction rate of γ-secretase, 42-site production, relative to βCTF (mouse brain membrane) of 11 fold. Besides, in assay [1], the rate of γ-secretase activity for Aβ38 production relative to βCTF (HeLa membrane) is less than 10 fold and the secreted Aβ40 from transfected HEK293T cells relative to SPβCTF (ECL) turned out to be 10 fold.
